Laboratory results from the supplement of paper PMC9170038.

Key:
MS2 coat protein [1] = experiment: apparent KD of MS2 coat protein, switch ON state; designed switch direction (-1 OFF switch, 1 ON switch): -1; higher = weaker reporter binding; conditions: FMN input: 0 or 200 uM; Eterna round: R93 (includes R88 designs)
Outline: (§1)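 SNAP-549-labelled MS2 coat protein was titrated onto designed RNA switches that had been transcribed on-chip from Illumina sequencing clusters. Amounts doubled from 0.7 or 1.5 nM to 3 µM in 100 mM Tris-HCl pH 7.5, 80 mM KCl, 4 mM MgCl2, with constant ligand or without. Apparent KD is the median per design of normalised cluster binding-curve fits.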

MS2 coat protein [2] = experiment: apparent KD of MS2 coat protein, switch OFF state (with FMN for OFF switches, without FMN for ON switches); designed switch direction (-1 OFF switch, 1 ON switch): -1; higher = weaker reporter binding; conditions: FMN input: 0 or 200 uM; Eterna round: R93 (includes R88 designs)
Outline: as §1

| Sequence | apparent KD of MS2 coat protein (MS2 coat protein [1]) | apparent KD of MS2 coat protein (MS2 coat protein [2]) |
| --- | --- | --- |
| AGAGACAGAGGAUAUACAUGAGGAUCACCCAUGUAAGAGAAAGAAAAGGGAAAGAAAAGUAGAAGGCUGAGAGA [Ruby 67] | 0.0242 µM | 0.0287 µM |
| AAAAACCUAGGAUAUACAUGAGGAUCACCCAUGUAAAGAAAAAAAAAGGGAAAAAAAAGUAGAAGGAGGAAGAA [JR_Exc003_Sub1201] | 0.0166 µM | 0.0186 µM |
| AAAGGUUGAGGAUAUGCGUGGAAAAAGUGUAUUCAAAAAAAACAUGAGGAUCACCCAUGUAGAAGGCGACCAAA [MS2 Riboswitches On Chip Exclusion 2 wbt3] | 0.0619 µM | 0.163 µM |
| AAAAAGUGAGGAUAUACAUGAGGAUCACCCAUGUGUAUAAAAAAAUACACAAAAGAAAGUAGAAGGCACUAAAG [Mat - Exclusion 3 - Mayanna mod - D109] | 0.0284 µM | 0.0848 µM |
| AGGAAGUGAGGAUAUGCAGCAUAUAGUGGACGCUAUAGCAUGUAGAAGGCACAUGAGGAUCACCCAUGUUUAAA [EX4 Malc#38] | 0.0308 µM | 0.0349 µM |
| AAAUUGUCAGGAUAUCGUAUAACAUGGAAAACAUGGAGAUACGAGAAGGGACAUGAGGAUCACCCAUGUAAAAC [May 95] | 0.0516 µM | 0.0874 µM |
| AGCUAGUCAGGAUAUACGAACAUGUCGAGAGACGUGAAGGGACAUGAGGAUCACCCAUGUAGAAGGGACUAGCA [Mat - Exclusion 2 - JL mod - D2] | 0.0355 µM | 0.17 µM |
| AAAAAAAAAGGAUAUAAAACAGAGGAUAUACAUAAAUAAAAACAUGAGGAUCACCCAUGUAGAAGGCUGAAAAA [Meechl Ex2 R2 m0] | 0.0187 µM | 0.0222 µM |
| AGUUGGCGAGGAUAUACAUGAGGAUCACCCAUGUGAGAGUAAAAAGUGAGAAAGAAAAGUAGAAGGCGCUAACA [JL Lego Mod 19] | 0.0488 µM | 0.352 µM |
| AAAAAUUGAGGAUAUACGUACAUGUCGAAAGACGUGAAGGGACAUGAGGAUCACCCAUGUAGAAGGCGAAAAAA [Mat - Exclusion 2 - JL mod - D73] | 0.0456 µM | 0.0279 µM |
| AAGAGUACAGGAUAUAUAUGAAAAGAGUCGAAAGACUCAAAACAUGAGGAUCACCCAUGUAGAAGGGUACUCAA [Hyphema Seclusion Mod 62% 1] | 0.0368 µM | 0.0229 µM |
| AAGAAGAGAGGAUAUACAUGAGGAUCACCCAUGUAAAAGAAAGAGGGAAAAGAGAAAAGUAGAAGGCUCAAGAA [Arsinoe II] | 0.0239 µM | 0.037 µM |
| UACUUACAUGAGGAUCACCCAUGUCAGGAUAUGCGCUCAGAGUAUAUAUAAGAUUCAAGCAGAAGGGACACUAA [JR_Exc001_Sub204] | 0.0348 µM | 0.0372 µM |
| AAAAAGCGAGGAUAUACGAGUCAAAGAAAAGACAAAGGGAAACAUGAGGAUCACCCAUGUAGAAGGCGCAAAAA [Fiskers exclusion D2 62% 1] | 0.0237 µM | 0.134 µM |
| GUGUACAGAGGAUAUACAUGAGCAUGGAAACAUGCAGGAUCACAUGAGGAUCACCCAUGUAGAAGGCUGUACAC [Ex2: 732] | 0.0351 µM | 0.012 µM |
| AAAAAACAUGAGGAUCACCCAUGUGAGGAUAUGCAAAACCCAUAUAAAAAGAGAAAAAGCAGAAGGCACAAAAA [wbt round 1 mod] | 0.0258 µM | 0.0404 µM |
| AAAAGCUAAGGAUAUACAUGAGGAUCACCCAUGUAGAACAGUGUAUGGGUAAAGGCGCGUAGAAGGUAGAAAAG [Arbileat] | 0.0299 µM | 0.0421 µM |
| AAGAAACAUGAGGAUCACCCAUGUGAGGAUAUUGAAAAGAAAAGAAAAGAAAGAAGAACAAGAAGGCACAAAGG [Merenhor] | 0.0394 µM | 0.0378 µM |
| AAAAAGUCAGGAUAUCGGAAAAUAAAAAUAAAAAUAAAAAACGAGAAGGGACAUGAGGAUCACCCAUGUAUGAC [Mat - Exclusion 4 - Mayanna - D114] | 0.0276 µM | 0.0246 µM |
| AAGAAGCUAGGAUAUACAUGAGGAUCACCCAUGUAAAAGAAAGAAAAGGGAAAGAAAAGUAGAAGGAGCAAGAA [Menpehtire Ramesses I] | 0.0287 µM | 0.0356 µM |
| AAGAACGUAGGAUAUACAUGAAAGAAAGAAAAGAAAAGAAAACAUGAGGAUCACCCAUGUAGAAGGACGUAGAA [EteRNA is fun!] | 0.02 µM | 0.0221 µM |
| AAUAAACAUGAGGAUCACCCAUGUCAGGAUAUGCACAAACAAACAAACAAACAAGCUAGCAGAAGGGACACUAC [Amethyst 87] | 0.0231 µM | 0.031 µM |
| AAAAAACAUGAGGAUCACCCAUGUAAGGAUAUCGGAAAAGGAAAAAAAAAAAAUAAGACGAGAAGGUACACCAA [Mat - Exclusion 1 - Eli mod - D79] | 0.0233 µM | 0.0312 µM |

| Sequence | apparent KD of MS2 coat protein (MS2 coat protein [1]) | apparent KD of MS2 coat protein (MS2 coat protein [2]) |
| --- | --- | --- |
| GGUUGGCGAGGAUAUACAUGAGGAUCACCCAUGUGAGAGAAAAAAGUGAGAAAGAAAAGUAGAAGGCGCUGACU [salish99-ex3-04] | 0.0545 µM | 0.262 µM |
| AAGAAGUGAGGAUAUCGAAGACAGACGAAAAGUCUGUCAAACGAGAAGGCACAUGAGGAUCACCCAUGUGAGAA [What have we learned so far? 64% 2] | 0.0226 µM | 0.0381 µM |
| AAAAAGUGAGGAUAUUCGGAUAGGAAAACGAAAACCUAUCCGAAGAAGGCACAUGAGGAUCACCCAUGUGAGAA [67% Ecls-II - Early G + late G segment 4] | 0.0265 µM | 0.0513 µM |
| UAAAGACAUGAGGAUCACCCAUGUGAGGAUAUCGGAGACAACAGAACAUCAAGUACAAUGAGAAGGCACAGAAA [JR_Exc001_Sub018] | 0.0406 µM | 0.0471 µM |
| AAGAAACAUGAGGAUCACCCAUGUGAGGAUAUCGAAGAAAGAAAGAAAGAAAGAAGAACGAGAAGGCACAAAGG [Publius Octavius] | 0.0427 µM | 0.0593 µM |
| AAGAAAGCAGGAUAUACAAAAUAAAAGAAAAGAAAGAAAGAACAUGAGGAUCACCCAUGUAGAAGGGCUAAGAA [Khahotepre Sobekhotep VI] | 0.038 µM | 0.0323 µM |
| AAAAAGGUAGGAUAUACAUGAGGAUCACCCAUGUACAUAAAUGGAGAAAAAAACAGUAGUAGAAGGGCCAAAAA [Ex3 Malc#10] | 0.0295 µM | 0.0369 µM |
| GUCCUACAUGAGGAUCACCCAUGUCAGGAUAUGUAGCGUCCGAGCGAAAAGGCCCGGAGCAGAAGGGACAGGUG [Maisbia] | 0.0161 µM | 0.0201 µM |
| AGCUAGUGAGGAUAUACGAACAAGUAAAAGGACUGUAAGGGACAUGAGGAUCACCCAUGUAGAAGGCACUAGCA [Diamond 60] | 0.0296 µM | 0.0927 µM |
| AAAACACAUGAGGAUCACCCAUGUGAGGAUAUGCGAGUGAAAAUAAAAAUAAAACAUAGCAGAAGGCACAAGGA [Amethyst 80] | 0.0359 µM | 0.045 µM |
| GGUUGGCGAGGAUAUACAUGAGGAUCACCCAUGUGAGAGAAAAAAGUGAGAAAGAAAAGUAGAAGGUGUUGACG [salish99-ex3-70] | 0.0554 µM | 0.0567 µM |
| AUUAAGUGAGGAUAUGAGUGAACAACAAAACAAAUAACGACUCAGAAGGCACAUGAGGAUCACCCAUGUAUAAA [May 69] | 0.0317 µM | 0.0287 µM |
| AAAAAGUGAGGAUAUGGUAAAAAAAAAAAAAAAAAAAAACUCCAGAAGGCACAUGAGGAUCACCCAUGUAAAAA [Jolly's Folly - Jieux - Exclusion 4] | 0.0585 µM | 5.29 µM |
| AAAUGUCUAGGAUAUACAUGAGGAUCACCCAUGUGUAAAAAUAAAUACACAAAAGAAAGUAGAAGGAGACAAAA [Ex 3 May 13] | 0.0224 µM | 0.0473 µM |
| AGCUAGUCAGGAUAUACGAGCAUGUCAAAAGACGUGAAGGGACAUGAGGAUCACCCAUGUAGAAGGGACUAGCA [Diamond 22] | 0.0403 µM | 0.122 µM |
| AAAAAACAUGAGGAUCACCCAUGUAAGGAUAUGCUAGGAAAAAGAAAAAUAAAAACUAGCAGAAGGUAUAUGAA [JL wbt mod 12] | 0.0245 µM | 0.0274 µM |
| AAAAAAAGAGGAUAUACGUGAAAAAUAAAAAUGUAAAAACCACAUGAGGAUCACCCAUGUAGAAGGCUUAAAAA [Ecx-I 62% 2] | 0.0264 µM | 0.0228 µM |
| AAAAAACAUGAGGAUCACCCAUGUAAGGAUAUGCGAAAUAAAAGAAAUAAAAAGGAAAGCAGAAGGUACAUGAA [JL wbt mod 8] | 0.0272 µM | 0.0844 µM |
| AUAAAGACAGGAUAUACAUGAGGAUCACCCAUGUAAAAAAAAAAAAGUUCCUCAAAAAGUAGAAGGGUCAAUAA [JR_Exc003_Sub014] | 0.0284 µM | 0.119 µM |
| AGCUAGUCAGGAUAUACGAACAUGUCGCCAGAUGUGAAGGGACAUGAGGAUCACCCAUGUAGAAGGGACUAGCA [salish99-Ex2-23] | 0.254 µM | 0.198 µM |
| CUCUAGUAAGGAUAUGGAAGAAAAGAAAAGAAAGAAAAGAACCAGAAGGUACAUGAGGAUCACCCAUGUAAGAA [EteRNA is fun!] | 0.0489 µM | 0.0234 µM |
| AAGAACGCAGGAUAUACAUGAGGAUCACCCAUGUAAAAGAAAGAAAAGGGAAAGAAAAGUAGAAGGGCGAAGAA [Aakheperkare Thutmose I] | 0.0339 µM | 0.0331 µM |
